According to paper PMC3098264, “Crystal Structure of the PAC1R Extracellular Domain Unifies a Consensus Fold for Hormone Recognition by Class B G-Protein Coupled Receptors” (PLoS ONE, 2011):

B1: un-labeled PACAP (15–31) [not stated] / MBP-PAC1R (25–140)-His6 [human] (parent complex)
chain 1: KQMAVKKYLAAVLGKRY
chain 2: CIFKKEQAMCLEKIQRANELMGFNDSSPGCPGMWDNITCWKPAHVGEMVLVSCPELFRIFNPDQDMGVVSRNCTEDGWSEPFPHYFDACGFDEYESETGDQDYYYLSVKALYTVGY

Variants of: B1
Assay: competitive AlphaScreen; Competing peptide 150uM; residual signal after competition, higher counts = weaker competition by the mutant peptide; read off a plot

| response [Photon Counts] | Variant |
| --- | --- |
| ~1900 | chain 1 KAMAVKKYLAAVLGKRY |
| ~26000 | chain 1 KQMAVKKYLAAVAGKRY |
| ~6300 | chain 1 KQMAVKKYLAAALGKRY |
| ~3800 | chain 1 KQMAVKKYLAAVLGARY |
| ~2700 | chain 1 KQMAVKKYLAAVLGKAY |
| ~1800 | chain 1 AQMAVKKYLAAVLGKRY |
| ~1100 | chain 1 KQMAVKKYAAAVLGKRY |
| ~1500 | chain 1 KQMAVKKALAAVLGKRY |
| ~2700 | chain 1 KQMAVKKYLAAVLGKRA |
| ~2900 | chain 1 KQMAVKAYLAAVLGKRY |
| ~34000 | chain 1 KQMAVAKYLAAVLGKRY |
| ~17000 | chain 1 KQMAAKKYLAAVLGKRY |
| ~5100 | chain 1 KQAAVKKYLAAVLGKRY |
